# Results: the Immune Epitope Database (IEDB)
# How the values were obtained:
# [1] = target: HLA-A*01:01; assay: IEDB peptide-MHC binding, cellular MHC/competitive/fluorescence; ≥ and ≤ were set here for values at or beyond the usual limits of such assays; settings: source organism: Vaccinia virus WR
# [2] = target: HLA-A*02:02; assay: as above; settings: source organism: Vaccinia virus WR
# [3] = target: HLA-A*26:01; assay: as above; settings: source organism: Vaccinia virus WR
# [4] = target: HLA-A*29:02; assay: as above; settings: source organism: Vaccinia virus WR
# [5] = target: HLA-A*68:02; assay: as above; settings: source organism: Vaccinia virus WR
# [6] = target: HLA-A*02:01; assay: IEDB peptide-MHC binding, purified MHC/competitive/radioactivity; ≥ and ≤ were set here for values at or beyond the usual limits of such assays; settings: source organism: Vaccinia virus WR
# [7] = target: HLA-A*02:03; assay: as above; settings: source organism: Vaccinia virus WR
# [8] = target: HLA-A*02:06; assay: as above; settings: source organism: Vaccinia virus WR
# [9] = target: HLA-A*23:01; assay: as above; settings: source organism: Vaccinia virus WR
# [10] = target: HLA-A*24:02; assay: as above; settings: source organism: Vaccinia virus WR
# [11] = target: HLA-A*30:02; assay: as above; settings: source organism: Vaccinia virus WR
# [12] = target: HLA-B*07:02; assay: IEDB peptide-MHC binding, cellular MHC/competitive/fluorescence; ≥ and ≤ were set here for values at or beyond the usual limits of such assays
# [13] = target: HLA-B*51:01; assay: as above
# [14] = target: HLA-B*35:01; assay: IEDB peptide-MHC binding, purified MHC/competitive/radioactivity; ≥ and ≤ were set here for values at or beyond the usual limits of such assays
# [15] = target: HLA-B*53:01; assay: as above
# [16] = target: HLA-B*54:01; assay: as above
# [17] = target: HLA-A*24:02; assay: IEDB peptide-MHC binding, cellular MHC/competitive/fluorescence; ≥ and ≤ were set here for values at or beyond the usual limits of such assays; settings: source organism: Vaccinia virus WR
# [18] = target: HLA-A*01:01; assay: IEDB peptide-MHC binding, purified MHC/competitive/radioactivity; ≥ and ≤ were set here for values at or beyond the usual limits of such assays; settings: source organism: Vaccinia virus WR
# [19] = target: HLA-A*02:02; assay: as above; settings: source organism: Vaccinia virus WR
# [20] = target: HLA-A*26:01; assay: as above; settings: source organism: Vaccinia virus WR
# [21] = target: HLA-A*29:02; assay: as above; settings: source organism: Vaccinia virus WR
# [22] = target: HLA-A*68:02; assay: as above; settings: source organism: Vaccinia virus WR
# [23] = target: HLA-A*68:01; assay: IEDB peptide-MHC binding, cellular MHC/competitive/fluorescence; ≥ and ≤ were set here for values at or beyond the usual limits of such assays
# [24] = target: HLA-A*11:01; assay: IEDB peptide-MHC binding, purified MHC/competitive/radioactivity; ≥ and ≤ were set here for values at or beyond the usual limits of such assays; settings: source organism: Mammarenavirus lassaense
# [25] = target: HLA-A*31:01; assay: as above
# [26] = target: HLA-A*33:01; assay: as above
# [27] = target: HLA-A*02:01; assay: IEDB peptide-MHC binding, cellular MHC/competitive/fluorescence; ≥ and ≤ were set here for values at or beyond the usual limits of such assays; settings: source organism: Vaccinia virus WR
# [28] = target: HLA-A*30:02; assay: as above; settings: source organism: Vaccinia virus WR
# [29] = target: HLA-A*11:01; assay: as above; settings: source organism: Mammarenavirus guanaritoense
# [30] = target: HLA-B*18:01; assay: as above; settings: source organism: Mammarenavirus guanaritoense
# [31] = target: HLA-B*44:02; assay: as above; settings: source organism: Mammarenavirus guanaritoense
# [32] = target: HLA-B*44:03; assay: as above; settings: source organism: Mammarenavirus guanaritoense
# [33] = target: HLA-B*45:01; assay: as above; settings: source organism: Mammarenavirus guanaritoense
# [34] = target: HLA-B*40:01; assay: IEDB peptide-MHC binding, purified MHC/competitive/radioactivity; ≥ and ≤ were set here for values at or beyond the usual limits of such assays; settings: source organism: Mammarenavirus guanaritoense
# [35] = target: HLA-B*40:02; assay: as above; settings: source organism: Mammarenavirus guanaritoense
# [36] = source organism: Mammarenavirus lassaense
# [37] = source organism: Mammarenavirus machupoense
# [38] = source organism: Mammarenavirus guanaritoense
sequence,measurement,setting,value
RQVSVKLLI,IC50,[1],23800 nM
same,IC50,[2],17900 nM
same,IC50,[3],6340 nM
same,IC50,[4],≥ 70000 nM
same,IC50,[5],15100 nM
same,IC50,[6],250 nM
same,IC50,[7],254 nM
same,IC50,[8],0.13 nM
same,IC50,[9],835 nM
same,IC50,[10],2540 nM
same,IC50,[11],519 nM
MCISLSTAI,IC50,[12]; [36],24000 nM
same,IC50,[13]; [36],6760 nM
same,IC50,[14]; [36],211 nM
same,IC50,[15]; [36],1430 nM
same,IC50,[16]; [36],192 nM
SQIFNIISYI,IC50,[17],9510 nM
same,IC50,[18],801 nM
same,IC50,[6],111 nM
same,IC50,[19],62 nM
same,IC50,[7],181 nM
same,IC50,[8],23 nM
same,IC50,[9],2380 nM
same,IC50,[20],397 nM
same,IC50,[21],1150 nM
same,IC50,[11],671 nM
same,IC50,[22],48 nM
ALMSIISTFH,IC50,[23]; [36],23800 nM
same,IC50,[24],618 nM
same,IC50,[25]; [36],3680 nM
same,IC50,[26]; [36],3610 nM
MLNNSFYYM,IC50,[12]; [37],29700 nM
same,IC50,[13]; [37],6950 nM
same,IC50,[14]; [37],501 nM
same,IC50,[15]; [37],851 nM
same,IC50,[16]; [37],4960 nM
FQESFYEDI,IC50,[1],≥ 70000 nM
same,IC50,[27],12900 nM
same,IC50,[3],≥ 70000 nM
same,IC50,[4],58200 nM
same,IC50,[28],≥ 70000 nM
same,IC50,[5],36800 nM
same,IC50,[19],2280 nM
same,IC50,[7],4420 nM
same,IC50,[8],185 nM
same,IC50,[9],263 nM
same,IC50,[10],440 nM
TTSLFLHLV,IC50,[29],15400 nM
same,IC50,[23]; [38],11100 nM
same,IC50,[25]; [38],726 nM
same,IC50,[26]; [38],2270 nM
AQQFCQYLI,IC50,[1],32400 nM
same,IC50,[3],49000 nM
same,IC50,[4],45400 nM
same,IC50,[9],85 nM
same,IC50,[10],313 nM
same,IC50,[11],748 nM
ADKNLIKCS,IC50,[30],≥ 70000 nM
same,IC50,[31],≥ 70000 nM
same,IC50,[32],≥ 70000 nM
same,IC50,[33],≥ 70000 nM
same,IC50,[34],316 nM
same,IC50,[35],102 nM
